Data from PMC3924328, “Structure of the S100A4/myosin-IIA complex” (BMC Structural Biology, 2013).
The star is where a group is joined. FITC = O=C1OC2(c3ccc(O)cc3Oc3cc(O)ccc32)c2ccc(NC(=S)*)cc21; Ahx = NCCCCCC(=O)O

B1: S100A4 (wild-type, full-length, human) (natural protein)
chain: not shown
notes: Dimer; also called wild-type S100A4; Ca^2+-S100A4; source: E. coli BL21(DE3)*, purified (ammonium sulfate, Phenyl-Sepharose, Q XL anion exchange); 15N-labelled from M9 medium for NMR
B2: FITC-MIIA^1904-1927 peptide (peptide)
peptide: {FITC-Ahx}-TETADAMNREVSSLKNKLRRGDLP-NH2
SMILES: CSCC[C@H](NC(=O)[C@H](C)NC(=O)[C@H](CC(=O)O)NC(=O)[C@H](C)NC(=O)[C@@H](NC(=O)[C@H](CCC(=O)O)NC(=O)[C@@H](NC(=O)CCCCCNC(=S)Nc1ccc2c(c1)C(=O)OC21c2ccc(O)cc2Oc2cc(O)ccc21)[C@@H](C)O)[C@@H](C)O)C(=O)N[C@@H](CC(N)=O)C(=O)N[C@@H](CCCNC(=N)N)C(=O)N[C@@H](CCC(=O)O)C(=O)N[C@H](C(=O)N[C@@H](CO)C(=O)N[C@@H](CO)C(=O)N[C@@H](CC(C)C)C(=O)N[C@@H](CCCCN)C(=O)N[C@@H](CC(N)=O)C(=O)N[C@@H](CCCCN)C(=O)N[C@@H](CC(C)C)C(=O)N[C@@H](CCCNC(=N)N)C(=O)N[C@@H](CCCNC(=N)N)C(=O)NCC(=O)N[C@@H](CC(=O)O)C(=O)N[C@@H](CC(C)C)C(=O)N1CCC[C@H]1C(N)=O)C(C)C
notes: source: synthetic peptide (Bio-Synthesis Inc.)
B3: MIIA^1851-1960 (C-terminal fragment of the human myosin-IIA heavy chain) (domain or fragment, UniProt P35579 1851-1960, looked up)
chain: VDDERRNAEQYKDQADKASTRLKQLKRQLEEAEEEAQRANASRRKLQRELEDATETADAMNREVSSLKNKLRRGDLPFVVPRRMARKGAGDGSDEEVDGKADGAEAKPAE
notes: about 75 residues of the coiled-coil and the entire C-terminal tailpiece; A dimer when alone (sedimentation equilibrium); Printed monomer mass 12,397.5 Da; source: E. coli BL21(DE3)*, purified (High Q Sepharose, hydroxyapatite, Sephacryl S200)

How the values were obtained:
[1] = biological target: the molecule itself; assay: AUC; sedimentation equilibrium, 22°C, interference optics; 20 mM Tris pH 7.5, 150 mM KCl, 0.5 mM CaCl2, 1 mM TCEP; MIIA^1851-1960 alone and mixed with S100A4 at 0.5:1 and 1:1 (dimer:dimer); 12,000, 20,000 and 28,000 rpm
[2] = biological target: T1, S100A4Δ8C (S100A4 with the C-terminal eight amino acids deleted) (human, UniProt P26447 1-93); assay: fluorescence polarisation; direct anisotropy titration; 50 nM FITC-MIIA^1904-1927, 0-30 μM S100A4Δ8C dimer; 22°C; 20 mM Tris pH 7.5, 150 mM KCl, 1 mM DTT, 0.5 mM CaCl2, 0.5 mg/ml BSA; single site saturation fit; conditions: both partners purified
T1 construct: S100A4, human, codon-optimized, untagged, in pET11b; deletion of the C-terminal eight amino acids (residues 94-101 absent); Dimer; also called Ca^2+-S100A4Δ8C; apo-S100A4Δ8C; source: E. coli BL21(DE3)*, purified (ammonium sulfate, Phenyl-Sepharose, Q XL anion exchange; Superdex 75 for crystallization)

[3] = biological target: B1; assay: AUC; sedimentation velocity, 22°C, 53,000 rpm; 20 mM Tris pH 7.5, 150 mM KCl, 0.5 mM CaCl2, 1 mM TCEP; each protein alone and MIIA^1851-1960 dimer:S100A4 dimer at 0.5:1, 1:1, 1.5:1; conditions: both partners purified
[4] = biological target: B1; assay: AUC; sedimentation equilibrium, 22°C, interference optics; 20 mM Tris pH 7.5, 150 mM KCl, 0.5 mM CaCl2, 1 mM TCEP; MIIA^1851-1960 alone and mixed with S100A4 at 0.5:1 and 1:1 (dimer:dimer); 12,000, 20,000 and 28,000 rpm; conditions: both partners purified
[5] = biological target: B1; assay: fluorescence polarisation; competition anisotropy; 50 nM FITC-MIIA^1904-1927, 0.3 μM S100A4 dimer, 0-10 μM MIIA^1851-1960 dimer; 22°C; 20 mM Tris pH 7.5, 150 mM KCl, 1 mM DTT, 0.5 mM CaCl2, 0.5 mg/ml BSA; conditions: both partners purified

T1 sequence (P26447 1-93, stated change not applied): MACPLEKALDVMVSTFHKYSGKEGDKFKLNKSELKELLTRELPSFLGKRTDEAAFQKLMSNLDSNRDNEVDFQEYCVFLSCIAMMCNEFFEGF

B1: binds [1].

B2 showed a Kd [2] of 510 ± 50 nM.

B3 was tested, and the “stoichiometry N” value [3] was 1 MIIA^1851-1960 polypeptide per S100A4 dimer, the “stoichiometry N” value [4] was 1 MIIA^1851-1960 polypeptide chain per S100A4 dimer and the “stoichiometry N” value [1] was 2. It also gave an IC50 [5] of 21.2 nM.
